Reference: US11059855B2, “Antimicrobial peptides and methods of making and using same” (priority 2017, dated 2021)
No end group written: not given here.

Legend:
[1] = Circular dichroism secondary structure (Dichroweb), peptide only; type: physicochemical; conditions: 20 °C
Method: (§1) Dichroweb software analyzes the secondary structure of LDKA peptides from circular dichroism spectroscope. The table presents the percentage of each helix and strand structure at different temperature. The data are analyzed using CONTIN-LL method and Reference Set 4 (Optimised for 190-240 nm).
(§2) Peptide solutions (peptide concentration is 50 μM) were titrated with POPC and POPG LUVs (50, 100, 250, 500, 1000 μM) and the corresponding changes CD spectra collected. Analysis of these spectra using CD tools and Dichroweb provides an ensemble average of the changes in secondary structure in the presence of POPC and POPG LUVs (dichroweb.cryst.bbk.ac.uk), which gives a direct measure of the binding free energies for each peptide.

[2] = Circular dichroism secondary structure (Dichroweb), with POPC; type: physicochemical
Method: as §1, §2

[3] = Circular dichroism secondary structure (Dichroweb), with POPG; type: physicochemical
Method: as §1, §2

[4] = ANTS/DPX leakage assay, POPC; type: biochemical; conditions: P:L = 1:1000, pH 7 phosphate buffer
Method: (§3) 5 mM ANTS and 12.5 mM DPX were entrapped in 0.1 μm diameter extruded vesicles with lipids. Gel filtration chromatography of Sephadex G-100 (GE Healthcare Life Sciences Inc.) was used to remove external free ANTS/DPX from LUVs with entrapped contents. […] Leakage was measured after 3 hr incubation. 10% Triton was used as the positive control to measure the maximum leakage of the vesicle. Fluorescence emission spectra were recorded using excitation wavelength (Ex: 350 nm) and emission wavelength (Em: 510 nm) for ANTS/DPX using Synergy H1 Hybrid Multi-Mode Reader.
(§4) This detects and quantifies the release of a small fluorescent dye (ANTS/DPX; MW=˜400 Da) encapsulated in LUVs after addition of library peptides. Neutral POPC LUVs serve as a simple model for mammalian membranes, while charged POPG LUVs mimic bacterial membranes enriched in anionic lipids.

[5] = ANTS/DPX leakage assay, POPG; type: biochemical; conditions: P:L = 1:1000, pH 7 phosphate buffer
Method: as §3, §4

[6] = 3-kDa dextran macromolecule release assay, POPG; type: biochemical; conditions: P:L = 1:1000, pH 7 phosphate buffer
[7] = Pore-size characterization by 3-kDa dextran release; type: biochemical; conditions: ‡Large pore for PG only
Excerpt: Eight LDKA peptides with different lipid selectivity and pore sizes were selected from the high-throughput screen and sequenced. […] The most common mutation is L to A, occurred 13 times and in 7 out of the 8 peptides, followed by A to L, which occurred 6 times in 5 peptides, L to D which occurred 3 times in 3 peptides, and L to P that occurred once. Lysine (K) is not favorable to be shown at the position 6, 8, 10, 12, and 13, which is the non-polar face of the helical structure. […] More specifically, the analogs only induce leakage from anionic POPG vesicles have 4-5 leucines, which is less than the analogs that can porate both POPC and POPG vesicles and have 6-7 leucines in their sequences.

[8] = Membrane selectivity from high-throughput dye leakage screen; type: biochemical; conditions: PC = POPC, PG = POPG
Excerpt: as §4

S. aureus = test: Bacterial minimum inhibitory concentration (MIC), S. aureus; type: cell-based, Staphylococcus aureus; conditions: 75 μM maximum tested; NDA = not determinable
Method: (§5) Escherichia colt strain ATCC 25922, Staphylococcus aureus strain ATCC 25923, and Pseudomonas aeruginosa strain ATCC PAO1 were used in this study. Overnight cultures were subcultured to log phase (OD600=0.3-0.6) after which cell counts were determined by measuring the OD600 (OD600 1.0=1.5×10^8 CFU/mL for S. aureus, 5×10^8 CFU/mL for E. colt, and 2.04×10^8 CFU/mL for P. aeruginosa). Bacteria in minimal media mere added to serially diluted peptides and incubated for 3 hr, followed by the addition of full growth media. After overnight incubation, the optical density of the wells was recorded on a plate reader to determine whether they were sterilized (OD<0.08) or were at stationary phase growth (OD600>0.5). Intermediate values, which were rare, were considered positive for growth. Average minimum sterilizing concentrations were calculated from the lowest peptide concentration that sterilized the bacteria in each serial dilution. The samples were done in sextuplet.

[9] = test system: methicillin-resistant Staphylococcus aureus (MRSA); type: cell-based; conditions: 75 μM maximum tested; NDA = not determinable
P. aeruginosa = test: Bacterial minimum inhibitory concentration (MIC), P. aeruginosa; type: cell-based, Pseudomonas aeruginosa; conditions: 75 μM maximum tested; NDA = not determinable
Method: as §5

[10] = Tryptophan fluorescent binding assay
Excerpt: To further investigate why some peptides (i.e. 7D12, 7G6, 11D12, 24F1, and 28H6) show selectivity for membrane types we measured peptide binding and secondary structural changes to vesicles containing binary mixtures of POPC and POPG lipids. FIGS. 10a-10e show the changes in the CD and tryptophan fluorescence spectra for these peptides upon addition of LUVs for whom the ratio of POPG was elevated from 0 to 100%. […] Consistent with the POPC/POPG leakage assay, these lipid selective peptides show little or no binding to POPC, which bind strongly to POPG. […] All other peptides have tryptophan fluorescence peaks around 350 nm, indicative of monomeric peptides. Addition of LUVs to 28H6 results in higher intensity and smaller width of the peak indicative of membrane binding. Remarkably, the CD spectra of 28H6 change from a helical aggregate in solution or POPC LUVs, to beta-strand conformations in the presence of anionic POPG lipids. Increasing the temperature of 28H6 with POPG vesicles can destabilize the beta-strand structure and reverse it to helix as the conformation of 28H6 with POPC (Table 8).

[11] = pH 7.1; cited from earlier work

For “GLLDDAKLLAKLAGW-AMIDE (GLLDDAKLLAKLAGW-NH2) [Peptide 7D12]”, the “Peptide-only, Strand” value [1] was 11%, the “Peptide-POPC, Helix” value ([2]; 20 °C) was 30% and the “Peptide-POPC, Strand” value ([2]; 20 °C) was 20%. The “Peptide-POPC, Helix” value ([2]; 45 °C) was 26%, the “Peptide-POPC, Strand” value ([2]; 45 °C) was 21% and the “Peptide-POPC, Helix” value ([2]; 70 °C) was 27%. The “Peptide-POPC, Strand” value ([2]; 70 °C) was 22%, the “Peptide-POPC, Helix” value ([2]; 95 °C) was 22% and the “Peptide-POPC, Strand” value ([2]; 95 °C) was 24%. For the same substance, the “Peptide-POPG, Helix” value ([3]; 20 °C) was 78%, the “Peptide-POPG, Strand” value ([3]; 20 °C) was 2% and the “Peptide-POPG, Helix” value ([3]; 45 °C) was 66%. The “Peptide-POPG, Strand” value ([3]; 45 °C) was 3%, the “Peptide-POPG, Helix” value ([3]; 70 °C) was 48% and the “Peptide-POPG, Strand” value ([3]; 70 °C) was 6%. The “Peptide-POPG, Helix” value ([3]; 95 °C) was 31%, the “Peptide-POPG, Strand” value ([3]; 95 °C) was 13% and the “ANTS/DPX release, POPC” value [4] was 6%. For the same substance, the “ANTS/DPX release, POPG” value [5] was 103%, the “3-kDa Dextran release, POPG” value [6] was 17% and the Pore size [7] was “Small”. For the same substance, the “Membrane selectivity (POPC vs POPG vesicles)” value [8] was “PG > PC”, the “Minimum Inhibitory Concentration, S. aureus” value (S. aureus) was “no activity and NDA” and the “Minimum Inhibitory Concentration, MRSA” value [9] was “NDA”. For the same substance, the “Minimum Inhibitory Concentration, P. aeruginosa” value (P. aeruginosa) was “no activity and NDA”, the “Binding onto POPC” value [10] was “does not bind” and the “Solubility, DPBS pH 7.1” value [11] was less than 0.1 mg/mL.
